Drawing on the Immune Epitope Database (IEDB), this text covers Kd for five sequences.

pKd: −log10 of the molar value.

The target in test [1] is HLA-A*02:16. As to the kind of experiment: IEDB peptide-MHC binding, purified MHC/direct/fluorescence; filed as Kd, often an IC50 or EC50 that approximates it; ≥ and ≤ were set here for values at or beyond the usual limits of such assays.
In test [2] the target is HLA-A*29:02. Described as above. Particulars: source organism: Convict Creek 107 virus.
In test [3] the target is HLA-A*68:02. The test is described as above.
In test [4] the target is HLA-A*03:01. The test is described as above.
In test [5] the target is HLA-A*02:19. The test is described as above.
The target in test [6] is HLA-A*02:11. Described as above.
For test [7], the target named is HLA-A*02:03. The description is as above.
Test [8] deals with HLA-A*02:12. Described as above.
The target of test [9] is HLA-A*23:01. Described as above.
Test [10] deals with HLA-A*02:01. The test can be described thus: IEDB peptide-MHC binding, purified MHC/competitive/fluorescence; filed as Kd, often an IC50 or EC50 that approximates it; ≥ and ≤ were set here for values at or beyond the usual limits of such assays.
Test [11] has as its target HLA-A*26:01. The test is described as above.
Test [12] has as its target HLA-B*57:01. The description is as above.
Test [13] concerns the target HLA-B*39:01. Described as above.
The target in test [14] is HLA-B*46:01. The test is described as above.
Test [15] has as its target HLA-B*18:01. The description is as above.
In test [16] the target is HLA-A*69:01. The test is described as above.
Test [17] has as its target HLA-B*27:03. The test is described as above.
Test [18] deals with HLA-B*51:01. The test is described as above.
Test [19] addresses HLA-B*15:17. The test is described as above. Particulars: source organism: Orthohantavirus sinnombreense.
Test [20] addresses HLA-A*24:03. The description is as above. Particulars: source organism: Orthohantavirus sinnombreense.
The target in test [21] is HLA-A*01:01. The test can be described thus: IEDB peptide-MHC binding, purified MHC/direct/fluorescence; filed as Kd, often an IC50 or EC50 that approximates it; ≥ and ≤ were set here for values at or beyond the usual limits of such assays.
Test [22] has as its target HLA-A*24:03. Described as above. Particulars: source organism: Choclo virus.
Test [23] concerns the target HLA-A*02:11. The test can be described thus: IEDB peptide-MHC binding, purified MHC/competitive/fluorescence; filed as Kd, often an IC50 or EC50 that approximates it; ≥ and ≤ were set here for values at or beyond the usual limits of such assays. Particulars: source organism: Bradyrhizobium diazoefficiens.
Test [24] has as its target HLA-B*15:01. The test can be described thus: IEDB peptide-MHC binding, purified MHC/direct/fluorescence; filed as Kd, often an IC50 or EC50 that approximates it; ≥ and ≤ were set here for values at or beyond the usual limits of such assays.
Test [25] concerns the target HLA-A*30:01. Described as above. Particulars: source organism: Yersinia enterocolitica.
Test [26] has as its target HLA-A*02:01. The test is described as above.
Test [27] has as its target HLA-A*31:01. The description is as above. Particulars: source organism: Yersinia enterocolitica.
In test [28] the target is HLA-A*26:01. The test is described as above. The note with it: source organism: Yersinia enterocolitica.
Test [29] addresses HLA-B*08:01. The test is described as above.
In test [30] the target is HLA-B*35:01. Described as above.
Test [31] concerns the target HLA-A*69:01. The test is described as above.
In test [32] the target is HLA-B*27:05. The description is as above.
Test [33] has as its target HLA-B*58:01. The description is as above.
In test [34] the target is HLA-B*40:01. The test is described as above.
Test [35] has as its target HLA-B*07:02. Described as above.
Test [36] has as its target HLA-B*44:02. Described as above. The note with it: source organism: Yersinia enterocolitica.
In test [37] the target is HLA-A*11:01. The test is described as above.
For test [38], the target named is HLA-C*14:02. Described as above. The note with it: source organism: Yersinia enterocolitica.
Test [39] addresses HLA-B*08:02. The test is described as above. The note with it: source organism: Influenza A virus(A/swine/Shandong/fZC/2003(H9N2)).
Test [40] concerns the target HLA-A*24:02. The test is described as above. The note with it: source organism: Influenza A virus (A/tiger/Thailand/CU-T4/04(H5N1)).
[41] abbreviates: source organism: Convict Creek 107 virus.
[42] abbreviates: source organism: Orthohantavirus sinnombreense.
Setting [43] is: source organism: Yersinia enterocolitica.
Where [44] appears, read: source organism: Influenza A virus (A/Puerto Rico/8/34/Mount Sinai(H1N1)).
The mark [45] stands for this setting: source organism: Influenza A virus (A/tiger/Thailand/CU-T4/04(H5N1)).

For orientation: pKd means −log10 of the Kd, conventionally taken in molar units.

On to LFPELECFF, for which the negative logarithm of the Kd (pKd) in test [1] (setting [41]), in [2], in [3] (setting [41]), in [4] (setting [41]), in test [5] (setting [41]) and in [6] (setting [41]) was no more than 4.70 in each case. In addition, the pKd in test [7] (setting [41]), in [8] (setting [41]), in [9] (setting [41]), in [10] (setting [42]), in test [11] (setting [42]) and in test [12] (setting [42]) was no more than 4.70 each time. The negative-log Kd (pKd) in [13] (setting [42]), in test [14] (setting [42]), in test [15] (setting [42]), in test [16] (setting [42]), in test [17] (setting [42]) and in test [18] (setting [42]) was no more than 4.70 throughout. Further, the pKd in test [19] was no more than 4.70; in test [20], 9.10.

As for KACDLAMCY, the negative logarithm of the Kd (pKd) was no more than 4.70 in test [1] (source organism: Choclo virus); no more than 4.70 in test [3] (source organism: Choclo virus); 5.48 in test [21] (source organism: Pergamino virus); no more than 4.70 in [5] (source organism: Choclo virus); no more than 4.70 in test [6] (source organism: Choclo virus); no more than 4.70 in [7] (source organism: Choclo virus). For the same sequence, the pKd in test [8] (source organism: Choclo virus), in test [9] (source organism: Choclo virus), in [22], in test [10] (source organism: Choclo virus), in test [11] (source organism: Choclo virus) and in test [12] (source organism: Choclo virus) was no more than 4.70 throughout. In addition, the pKd in [13] (source organism: Choclo virus), in [14] (source organism: Choclo virus), in test [15] (source organism: Choclo virus), in test [16] (source organism: Choclo virus), in test [17] (source organism: Choclo virus) and in [18] (source organism: Choclo virus) was no more than 4.70 in each case.

In the case of VTPGPHAQI, the pKd in test [10] (source organism: Bradyrhizobium diazoefficiens) was 5.98; in test [23], 7.15.

Take YIFRNTINM: the pKd in test [24] (setting [43]) is 6.53; in test [25], 5.75; in [26] (setting [43]) it was 6.65; in test [21] (setting [43]) it was no more than 4.70; in test [27] it was no more than 4.70; in test [28] it was 6.14. Also, the pKd was no more than 4.70 in test [29] (setting [43]); no more than 4.70 in test [4] (setting [43]); 7.08 in test [30] (setting [43]); 6.70 in [31] (setting [43]); no more than 4.70 in [32] (setting [43]); 6.29 in test [33] (setting [43]). In addition, the negative-log Kd (pKd) is no more than 4.70 in test [34] (setting [43]); 5.10 in test [35] (setting [43]); no more than 4.70 in test [36]; 5.11 in test [37] (setting [43]); 6.92 in test [38].

For the sequence FVRTLFQQM, the negative-log Kd (pKd) was 5.22 in test [24] (setting [44]); no more than 4.70 in test [26] (setting [45]); no more than 4.70 in [21] (setting [45]); 6.73 in [29] (setting [44]); no more than 4.70 in [4] (setting [45]); 6.53 in test [30] (source organism: Influenza A virus(A/swine/Shandong/fZC/2003(H9N2))). Further, the negative logarithm of the Kd (pKd) in test [39], in [31] (setting [45]), in [32] (setting [45]), in test [33] (setting [45]), in [40] and in [34] (setting [45]) was no more than 4.70 each time. For the same sequence, the figures for the pKd in test [35] (setting [44]), in test [37] (setting [45]) and in test [14] (source organism: Influenza A virus H3N2) were 6.30, no more than 4.70 and no more than 4.70, respectively.
